In US20230137139A1, “BIOSYNTHESIS OF CANNABINOIDS AND C[…]” (priority 2020, published 2023):
Substitutions are numbered along the chain they refer to.

B1: t861586 (protein)
chain: MAPSISFSLLQISLLAYSGLVSGDFSLRQCLESAVSRVAFEGDPFYQLLSVRPYNLDISIVPAAVAFPADTNEVAAVVRCAAQNGYQVQAKSGGHSYANHGLGGTNGAVVVNLENLQHFSMNTTTWEATIGAGTLLGDVTKRLSDAGGRAMAHGTCPQVGSGGHFTIGGLGPSSRQFGAALDHIIEAEVVLANSSIIRASETENPDVFFAVRGAASGFGIVTEFKVRTEPEPGQAVRYSYSFSFSDTATRADLFKKWQAYVTQPDLPRELASTLTILEHGMFITGTFFGSKEEYNALKIETEFPGFAKGGTLVLDDWLGLVSNWAEDLLLSEEEIEQMFEYIDNVDKGTLLWFAIFDLQGGAVGDVPVDATAYAHRDTLIWLQSYAINLFGRISETTVEFLERLNELTLTSTAKTVPYAAYPGYVDPRLTDAQAAYWGSNLARLNRIKAEIDPNNVFHNPQSVRPASG
B2: t861562 (protein)
chain: MGNTTSIAAGRDCLISAVGGNAAHVAFQDQLLYQATAVEPYNLNIPITPAAITYPQSADEIAAVVKCASEYGYKVQARSGGHSFGNYGLGGEDGAIVVEMKHFSQFSMDESTYIATIGPGITLGDLDTELYNVGHRAMAHGICPTIRTGGHLTVGGLGPTARQWGLALDHVEEVEVVLANSSIVRASDTQNQDIFFAIKGAAASFGIVTEFKVRTEQAPGLAVQYSYTFNLGTPAEKAKLVKDWQAFIAQENLSWKFYSNMVVFDGQIILEGLYFGSKEEYDALGLEQRFPPSEAGNVLVLTDWLGMVGHELEDTILRLVGNTPTWFYAKSLGFTPRALIPDSAIDDLFNYIHENNPGTLAWFVTLSLEGGAINTVPEHATAYGHRDVLFWVQIFVINPLGPVSQTTYGFADGMYDVLAQAVPESAGHAYLGCPDPRMPNAQQAYWRSNLPRLEELKGDLDPKGIFHNPQGVMVVS
B3: t861563 (protein)
chain: MARVPALFLGLSSVCLLVFFCSLINPTTPLHQHGKQTSIAGRDCLVSALGGNTGLVAFQDQLLYQTTAVHEYNLNIPVTPAAITYPETSEQIAAVVKCASEYDYKVQARSGGHSFGNYGLGGADGAVVVDMKHFTQFSMDEQTYEAVIGPGTTLGDVDTELYNNGKRAMAHGICPTISTGGHFTMGGLGPTARQWGLALDHVEEVEVVLANSSIVRASNTQNQEVFFAVKGAAASFGIVTEFKVRTQPAPGLAVQYSYTFNLGSSAEKAQFVKDWQSFISAKNLTRQFYTNMVIFDGNIILEGLFFGSKEQYEALGLEDRFVPKNPGNILVLTDWLGMVGHALEDTILRLVGNTPTWFYAKSLGFTPDTLIPSSGIDEFFDYIENNKAGTLTWFVTLSLEGGAINDVPKDATAYGHRDVLFWVQIFMASPTGPVSSTTYDFADGLYNVLTKAVPESEGHAYLGCPDPKMADAQQKYWRQNLPRLEELKATLDPKDTFHNPQGILPA
B4: t861551 (protein)
chain: MGNTTSIAGRDCLISALGGNSALAVFPNQLLWTADVHEYNLNLPVTPAAITYPETAEQIAGIVKCASDYDYKVQARSGGHSFGNYGLGGTDGAVVVDMKHFNQFSMDDQTYEAVIGPGTTLNDVDIELYNNGKRAMAHGVCPTIKTGGHFTIGGLGPTARQWGLALDHVEEVEVVLANSSIVRASNTQNQDVFFAVKGAAADFGIVTEFKVRTEPAPGLAVQYSYTFNLGSTAEKAQFVKDWQSFISAKNLTRQFYNNMVIFDGDIILEGLFFGSKEQYDALGLEDHFAPKNPGNILVLTDWLGMVGHALEDTILKLVGNTPTWFYAKSLGFRQDTLIPSAGIDQFFEYIANHTAGTPAWFVTLSLEGGAINDVAEDATAYAHRDVLFWVQLFMVNPLGPISETTYEFTDGLYDVLARAVPESVGHAYLGCPDPRMENAPQKYWRTNLPRLQELKEELDPKNTFHHPQGVIPA
B5: t861568 (protein)
chain: MGNSASVAGRACFVAAVGHDPNLVTFRGDLLYEFRIQPSYNLAIPVHPTVVTYPKTTAQVAEIVSCAAAQNYKMQAYSGGHSYGNYGLGGEDGHVVVDLKNFQDFTMDPDTHVATIGAGTSLGDLQDRLWHAGGRAMAHGSCPQVGVGGHFTIGGLGMMSRQWGMSLDHVVEAQVVLANSSVVTASDTQNQDIFWAIKGAAASFGIVTKFKVRTHGVPKAAIQYQYTFSQGDVLDKVKLFMAWQNIVAKPNLTRNFSTELTIFQDGIMIMGSFFGTRDEFHKFELENDLPLQGLGNVAYITNWLSLVAHTAEDYLLRLTGNVLTSFYAKSLSFTADELFNEQGLVTLFTYLDAAPKGTPTWWVIFDLEGGATNDVPVNATSYAHRDAIMWMQSYAVAGFEPPGFIIKRFLNRLHGVVIGNRAPGAVRSYPGYVDPYLRNAQETYWGPNLARLQDIKTAVDPDDVFHNPQSVKVNSLSPPDPGSHDV
B6: t861588 (protein)
chain: MGNTTSIAAGRDCLLSAVGGNHAHVAFQDQLLYQVTAVEPYNLNIPVTPAAVTYPQSADEIAAVVKCASEYGYKVQARSGGHSFGNYGLGGEDGAIVVEMKHFNQFSMDESTYTATIGPGITLGDLDTALYNAGHRAMAHGICPTIRTGGHLTMGGLGPTARQWGLALDHVEEVEVVLANSSIVRASNTQNQDILFAIKGAAASFGIVTEFKVRTEAAPGVAVQYSFTFNLGTPAEKAKLVKDWQAFIAQEDLTWKFYSNMNIFDGQIILEGIYFGSKEEYDALGLEKRFPSSEAGTVLVLTDWLGMVGHGLEDVILRLVGNTPTWFYAKSLGFTPRALIPDSAIDEFLNYIHENTPGTVSWFVTLSLEGGAINKVPGDATAYGHRDVLFWVQIFMINPLGPVSQTTYGFADGLYDVLAKAVPNSAGHAYLGCPDPRMPNAQQAYWRSNLPRLEELKGELDPKDIFHNPQGVMVVS
modifications: N- and C-terminal signal peptides
B7: t861567 (protein)
chain: MDSNTWEATFGSGFLLGELDKHLHANGNRAMAHGTCPGVGMGGHATIGGIGPSSRLWGTTLDHVLQVEVVTADGKIQRASKTQNPDLFWALQGAGASFGIITEFVVRTEPEPGSVVEYTYSVSLGKQSDMAPLYKQWQALVGDPSLDRRFTSLFIAEPLGVLITGTFYGTMYEWHASGIPDKLPRGPISVTVMDSLGSLAHIAEKTGLYLTNVPTSFASRSLALRQQDLLSEQSIDDLFEYMGSANADTPLWFVIFDNEGGAIADVPDNSTAYPHRDKVIVYQSYSVGLLGVTDKMIKFLDGVQDIVQRGAPNAHTTYAGYINPQLDRKAAQQFYWGDKLPRLQQIKKQYDPNNVFCNPQSIYPAEDMSDG
B8: t861577 (protein)
chain: B4 chain with V25A, F193L, Q345E, A351D
B9: t861592 (protein)
chain: B4 chain with V25A, F193L, Q345E, A351D
B10: t861583 (protein)
chain: MGNTTSIAGRDCLISALGGNSALAVFPNELLWTADVHEYNLNLPVTPAAITYPETAAQIAGVVKCASDYDYKVQARSGGHSFGNYGLGGADGAVVVDMKHFTQFSMDDETYEAVIGPGTTLNDVDIELYNNGKRAMAHGVCPTIKTGGHFTIGGLGPTARQWGLALDHVEEVEVVLANSSIVRASNTQNQDVFFAVKGAAANFGIVTEFKVRTEPAPGLAVQYSYTFNLGSTAEKAQFVKDWQSFISAKNLTRQFYNNMVIFDGDIILEGLFFGSKEQYDALGLEDHFAPKNPGNILVLTDWLGMVGHALEDTILKLVGNTPTWFYAKSLGFRQDTLIPSAGIDEFFEYIANHTAGTPAWFVTLSLEGGAINDVAEDATAYAHRDVLFWVQLFMVNPLGPISDTTYEFTDGLYDVLARAVPESVGHAYLGCPDPRMEDAQQKYWRTNLPRLQELKEELDPKNTFHHPQGVMPA
B11: t861589 (protein)
chain: B10 chain

Test system: CBCA production
Experiment: In vivo TS activity assay, Example 4 CBCAS enzymes with and without signal peptides, no pH adjustment
Type: cell-based
Settings: strains with (Y) or without (N) N-terminal and C-terminal signal peptides; no pH adjustment at Day 4; S. cerevisiae
Procedure: An assay to detect TS activity was conducted as follows: each thawed glycerol stock of candidate CBCAS transformants was stamped into a well of YEP+4% dextrose media. Samples were incubated at 30° C. in a shaking incubator for 2 days. A portion of each of the resulting cultures was stamped into a well of YEP+4% galactose+1 mM olivetolic acid (FIG. 1 Structure 6a). Samples were incubated at 20° C. and shaken in a shaking incubator for 4 days. Every 24 hours during those 4 days, 2% galactose and 1 mM olivetolic acid were spiked into the cultures. Sodium citrate buffer adjusted to pH 5.5 was added to each well at a final concentration of 100 mM. Samples were incubated at 20° C. and shaken in a shaking incubator for 2 days. A portion of each of the resulting production cultures was stamped into a well of phosphate buffered saline (PBS). Optical measurements were taken on a plate reader, with absorbance measured at 600 nm and fluorescence at 528 nm with 485 nm excitation. Samples were incubated at 30° C. in a shaking incubator for 2 days. 100% methanol was stamped into the production cultures in half-height deepwell plates. Plates were heat sealed and frozen. Samples were then thawed for 30 min and spun down at 4° C. A portion of the supernatant was stamped into half-area 96 well plates. CBCA, THCA, and CBDA production in the samples was quantified via liquid chromatography-mass spectrometry (LC-MS).
A library of 20 CBCAS enzymes selected from Example 1 and 3 was synthesized, including versions of the CBCAS enzymes with and without the N-terminal MFalpha2 signal peptide (SEQ ID NO: 16) and C-terminal HDEL signal peptide (SEQ ID NO: 17). Each candidate enzyme expression construct was transformed into an S. cerevisiae CEN.PK strain that also expressed a prenyltransferase enzyme capable of catalyzing reaction R^4 in FIG. 2. Strain t861555 expressing the A. niger CBCAS identified in Example 1, carrying both the Mfalpha2 and HDEL signal peptides was included in the library screen as a positive control for enzyme activity. Strain t861565 expressed the same A. niger CBCAS without the Mfalpha2 and HDEL signal peptides.
The strains were screened using the assay described in Example 1 with the following exception: at Day 4 samples were not subjected to a pH adjustment and a further 2 days of incubation at 20° C.

| Molecule | Average CBCA |
| --- | --- |
| B1 | 0.00 µg/L |
| B2 | 55737.91 µg/L |
| B3 | 4821.60 µg/L |
| B4 | 17501.94 µg/L |
| B5 | 0.00 µg/L |
| B6 | 42686.95 µg/L |
| B7 | 0.00 µg/L |
| B8 | 36869.19 µg/L |
| B9 | 74584.36 µg/L |
| B10 | 59260.52 µg/L |
| B11 | 95796.21 µg/L |
